Measurements reported in publication PMC10880117.

What was measured:
[1] = target: Human WT HSC70 (HSPA8) (human) (UniProt P11142)
[2] = target: Human V95E HSC70 (HSPA8) (human) (UniProt P11142)

Chain of DnaJB4 (Q9UDY4 whole entry): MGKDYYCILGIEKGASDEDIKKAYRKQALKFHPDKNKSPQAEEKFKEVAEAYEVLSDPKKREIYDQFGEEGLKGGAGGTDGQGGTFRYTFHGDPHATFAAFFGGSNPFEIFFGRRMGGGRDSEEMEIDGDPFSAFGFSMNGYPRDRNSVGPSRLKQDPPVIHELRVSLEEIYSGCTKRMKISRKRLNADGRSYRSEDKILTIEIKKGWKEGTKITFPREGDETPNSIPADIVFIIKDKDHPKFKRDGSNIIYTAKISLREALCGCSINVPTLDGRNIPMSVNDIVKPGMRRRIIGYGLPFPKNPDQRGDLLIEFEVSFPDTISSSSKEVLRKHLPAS

pseudo-Km of DnaJB4-stimulated ATPase activity (malachite green assay, 1 μM HSC70 titrated with DnaJB4, 37°C, Michaelis-Menten fit) [1] [µM]	pseudo-Km of DnaJB4-stimulated ATPase activity (malachite green assay, 1 μM HSC70 titrated with DnaJB4, 37°C, Michaelis-Menten fit) [2] [µM]	stimulation of ATPase activity (malachite green assay, normalised percent) as BAG1 is titrated into HSC70 (1 μM) and DnaJB4 (0.1 μM); value at the highest concentration tested [2] [%]	Molecule
0.092	0.088	–	DnaJB4 (from UniProt Q9UDY4 1-337) (natural protein)
–	–	25	BAG1 (natural protein) MAQRGGARRPRGDRERLGSRLRALRPGREPRQSEPPAQRGPPPSGRPPARSTASGHDRPTRGAAAGARRPRMKKKTRRRSTRSEELTRSEELTLSEEATWSEEATQSEEATQGEEMNRSQEVTRDEESTRSEEVTREEMAAAGLTVTVTHSNEKHDLHVTSQQGSSEPVVQDLAQVVEEVIGVPQSFQKLIFKGKSLKEMETPLSALGIQDGCRVMLIGKKNSPQEEVELKKLKHLEKSVEKIADQLEELNKELTGIQQGFLPKDLQAEALCKLDRRVKATIEQFMKILEEIDTLILPENFKDSRLKRKGLVKKVQAFLAECDTVEQNICQETERLQSTNFALAE
